Source: PMC12915166 (2025)
Each block holds one binder with its values, some of them ahead of it.

Experiments:
[1] = target: T1, HA-1 (HA-1H allele), encoded by ARHGAP45 peptide on HLA-A*02:06 (human); assay: activation reporter or marker
T1 peptide: VLHDDLLEA

[2] = target: T2, HA-2 (HA-2V allele), encoded by MYO1G peptide on HLA-A*02:01 (human)
T2 peptide: YIGEVLVSV

binding result [1]: recognises
B1: anti-HA-1H TCR clone 7 (TCR)
alpha TRAV3 TRAJ40 CDR3: AVRAPTSGTYKYI
beta TRBV7-9 TRBJ2-1 CDR3: ASSLVSGNEQF

EC50 of peptide [2]: 0.7 nM
B2: anti-HA-2V TCR clone 7 (TCR)
alpha TRAV21 TRAJ42 CDR3: AVRSGYGGSQGNL
beta TRBV7-8 TRBJ2-5 CDR3: ASSLAGGSLQETQY

EC50 of peptide [2]: 21 nM
B3: anti-HA-2V TCR clone 6 (TCR)
alpha TRAV38-2DV8 TRAJ34 CDR3: AYRRFYNTDKLI
beta TRBV19 TRBJ1-1 CDR3: ASRSAGYAEAF
